Substrate in series [1]: Cc1c(Sc2ccc(C(=O)N[C@@H](CCC(=O)O)C(=O)O)cc2)[nH]c2nc(N)[nH]c(=O)c12
Nature of the series: Activity of human recombinant cytosolic FPGS.

Substrate in series [2]: Cc1c(Sc2ccc(C(=O)N[C@@H](CCC(=O)O)C(=O)O)cc2)[nH]c2nc(N)[nH]c(=O)c12
Nature of the series: (§1) Activity of human recombinant cytosolic FPGS relative to aminopterin.

Substrate in series [3]: Nc1nc(N)c2nc(CNc3ccc(C(=O)N[C@@H](CCC(=O)O)C(=O)O)cc3)cnc2n1
The series is described as §1.

B1: Folylpolyglutamate synthase, mitochondrial (Homo sapiens), Q05932 (protein)
chain: MSRARSHLRAALFLAAASARGITTQVAARRGLSAWPVPQEPSMEYQDAVRMLNTLQTNAGYLEQVKRQRGDPQTQLEAMELYLARSGLQVEDLDRLNIIHVTGTKGKGSTCAFTECILRSYGLKTGFFSSPHLVQVRERIRINGQPISPELFTKYFWRLYHRLEETKDGSCVSMPPYFRFLTLMAFHVFLQEKVDLAVVEVGIGGAYDCTNIIRKPVVCGVSSLGIDHTSLLGDTVEKIAWQKGGIFKQGVPAFTVLQPEGPLAVLRDRAQQISCPLYLCPMLEALEEGGPPLTLGLEGEHQRSNAALALQLAHCWLQRQDRHGAGEPKASRPGLLWQLPLAPVFQPTSHMRLGLRNTEWPGRTQVLRRGPLTWYLDGAHTASSAQACVRWFRQALQGRERPSGGPEVRVLLFNATGDRDPAALLKLLQPCQFDYAVFCPNLTEVSSTGNADQQNFTVTLDQVLLRCLEHQQHWNHLDEEQASPDLWSAPSPEPGGSASLLLAPHPPHTCSASSLVFSCISHALQWISQGRDPIFQPPSPPKGLLTHPVAHSGASILREAAAIHVLVTGSLHLVGGVLKLLEPALSQ
On to B1, for which the Km in series [1] came to 5.1 µM. For the same protein, the Vmax in series [2] was 0.29; in series [3], 1.

For the origin of these results see ChEMBL document CHEMBL1139472, “Synthesis of N-{4-[(2,4-diamino-5-methyl-4,7-dihydro-3H-pyrrolo[2,3-d]pyrimidin-6-yl)thio]benzoyl}-L-glutamic acid and N-{4-[(2-amino-4-oxo-5-methyl-4,7-dihydro-3H-pyrrolo[2,3-d]pyrimidin-6-yl)thio]benzoyl}-L-glutamic acid as dual inhibitors of dihydrofolate reductase and thymidylate synthase and …” (J Med Chem, 2005).
